Key:
[1] = target: 2C (MBP removed by TEV in situ, bound to SUVs) (Poliovirus type 1 Mahoney, UniProt P03300 1128-1456); experiment: SUV co-flotation, TET fluorescence; conditions: protein: recombinant; tags: His6-MBP cleaved by TEV during assay; chain copies: 6; label: 5' TET on strand 1; blunt
mass photometry = target: the molecule itself; experiment: mass photometry
[2] = target: the molecule itself; experiment: cryo-electron tomography (mass from the volume of segmented densities)

B1: dsRNA 20-mer (oligos 1+2) (dsRNA)
RNA 1: CCUCUAACCACAGUCUGAUC
RNA 2: GAUCAGACUGUGGUUAGAGG
[1]
  binding result: binds

B2: His6-MBP-tagged full-length poliovirus 2C (residues 1-329) (natural protein)
chain: GDSWLKKFTEACNAAKGLEWVSNKISKFIDWLKEKIIPQARDKLEFVTKLRQLEMLENQISTIHQSCPSQEHQEILFNNVRWLSIQSKRFAPLYAVEAKRIQKLEHTINNYIQFKSKHRIEPVCLLVHGSPGTGKSVATNLIARAIAERENTSTYSLPPDPSHFDGYKQQGVVIMDDLNQNPDGADMKLFCQMVSTVEFIPPMASLEEKGILFTSNYVLASTNSSRISPPTVAHSDALARRFAFDMDIQVMNEYSRDGKLNMAMATEMCKNCHQPANFKRCCPLVCGKAIQLMDKSSRVRYSIDQITTMIINERNRRSNIGNCMEALFQ
notes: also called MBP-2C; His6MBP-2C
Mass photometry
  stoichiometry N: ~6

B3: full-length poliovirus 2C, MBP tag cleaved off in the presence of liposomes (membrane-bound 2C) (natural protein)
chain: GDSWLKKFTEACNAAKGLEWVSNKISKFIDWLKEKIIPQARDKLEFVTKLRQLEMLENQISTIHQSCPSQEHQEILFNNVRWLSIQSKRFAPLYAVEAKRIQKLEHTINNYIQFKSKHRIEPVCLLVHGSPGTGKSVATNLIARAIAERENTSTYSLPPDPSHFDGYKQQGVVIMDDLNQNPDGADMKLFCQMVSTVEFIPPMASLEEKGILFTSNYVLASTNSSRISPPTVAHSDALARRFAFDMDIQVMNEYSRDGKLNMAMATEMCKNCHQPANFKRCCPLVCGKAIQLMDKSSRVRYSIDQITTMIINERNRRSNIGNCMEALFQ
notes: also called full-length 2C
[2]
  stoichiometry N: ~6

— PMC11326647, “In vitro reconstitution reveals membrane clustering and RNA recruitment by the enteroviral AAA+ ATPase 2C” (PLOS Pathogens, 2023)
